Columns and labels:
[1] = molecular target: T1, human CD8α on primary CD8+ T cells (human, UniProt P01732 22-235); assay: flow cytometry on PBMC, 2 µg/mL mAb, positive cells among EMRA CD8 T cells, Donor 1
T1 construct: Endogenous CD8 on T cells from PBMC; also called CD8+ primary T cells; human primary CD8+ cells
Description: (§1) Frozen PBMCs were thawed and resuspended in FACS buffer (PBS+2% FBS). Cells were then incubated with Fc block for 15 min at 4 C prior to incubation with 2 μg/mL of each CD8α hinge binders at room temperature for 45 min. […] After staining, cells were washed with FACS buffer twice and resuspended in 100 μl PBS containing DAPI for acquisition. Cells were first gated on FSC/SSC, followed by live cell gating (DAPI negative cells) followed by singlet gating. CD3 T cells were identified using FSC versus CD3 dot plot. Within the CD3 T cells, CD4 and CD8 T cells were gated. Naïve, Effector, EM and CM cells were identified within the CD8 T cells using CD45RA and CD27 dot plot. Within each of the cell types, the secondary only control was used to set the gates to identify the positive stained population. The percentage of positive cells in CD8+ T cell population with binding to CD8α hinge binders were quantified and summarized in Table 13.

[2] = molecular target: T2, soluble CAR extracellular domain (ECD) containing scFv and CD8α hinge (UniProt P01732 138-182, biotinylated); assay: BLI (OctetRed384), GC5W48-Btn (biotinylated CAR ECD) loaded on streptavidin tip, mAb in solution; second of two table rows; column head 'kdis (1/s)'
T2 construct: domain: CD8α hinge; also called soluble CAR ECD; CAR ECD
Description: (§2) To determine the binding affinity and kinetics of mAbs to CD8α hinge, soluble CAR extracellular domains (ECD) containing scFv and CD8α hinge was generated for Bio-layer interferometry (BLI) analysis using OctetRed384 (Sartorius). The CAR ECD was biotinylated and loaded to streptavidin sensor tip. Then mAbs were associated to the sensor and followed by disassociation in the assay buffer. Data was analyzed by Octet software (Sartorius).

[3] = molecular target: T2, soluble CAR extracellular domain (ECD) …; assay: BLI (OctetRed384), GC5W48-Btn loaded on streptavidin tip; row 'average'; the sheet puts this number under 'kdis (1/s)', Table 14 of the text under 'KD (M)'
Description: as §2

[4] = molecular target: T2, soluble CAR extracellular domain (ECD) …; assay: BLI (OctetRed384), GC5W48-Btn (biotinylated CAR ECD) loaded on streptavidin tip, mAb in solution; second of two table rows
Description: as §2

[5] = molecular target: T1, human CD8α on primary CD8+ T cells; assay: flow cytometry on PBMC, 2 µg/mL mAb, positive cells among CD8+ T cells, Donor 2
Description: as §1

[6] = molecular target: T1, human CD8α on primary CD8+ T cells; assay: flow cytometry on PBMC, 2 µg/mL mAb, positive cells among EMRA CD8 T cells, Donor 2
Description: as §1

[7] = molecular target: T2, soluble CAR extracellular domain (ECD) …; assay: BLI (OctetRed384), biotinylated CAR ECD on streptavidin tips; the cell stands under the head 'ka (1/Ms)' but the text gives 5.58 nM as the affinity (heads shifted)
Description: as §2

[8] = molecular target: T1, human CD8α on primary CD8+ T cells; assay: flow cytometry on PBMC, 2 µg/mL mAb, positive cells among EM CD8 T cells, Donor 2
Description: as §1

[9] = molecular target: T2, soluble CAR extracellular domain (ECD) …; assay: BLI (OctetRed384), GC5W48-Btn (biotinylated CAR ECD) loaded on streptavidin tip, mAb in solution; first of two table rows; column head 'kdis (1/s)'
Description: as §2

[10] = molecular target: T1, human CD8α on primary CD8+ T cells; assay: flow cytometry on PBMC, 2 µg/mL mAb, positive cells among EM CD8 T cells, Donor 1
Description: as §1

[11] = molecular target: T1, human CD8α on primary CD8+ T cells; assay: flow cytometry on PBMC, 2 µg/mL mAb, positive cells among CD8+ T cells, Donor 1
Description: as §1

[12] = molecular target: T3, CAR with CD8α hinge as the spacer, expressed on Jurkat CAR-T cells; assay: flow cytometry (iQue) on Jurkat CAR-T cells, A647 anti-human IgG Fc detection
T3 construct: domain: CD8α hinge; also called CD8α hinge expressed on the Jurkat CAR-T cells
Description: mAbs were 1:3 serially diluted ranging from 100 nM to 1.7 pM and were incubated with cell mixture containing Jurkat CAR-T cells (unstained), Jurkat cells (CTV dye stained) and Sup-T1 cells (CSFE dye stained) in assay media (RPMI 1640+10% HI FBS+Pen/strep) for 1 hr at 37° C. […] Cells were then washed and analyzed by iQue screener (Intellicyt®). ForeCyt software was used for data analysis. The ratio of geomean of AF647 fluorescent signal from sample over the isotype control antibody (Signal) was used for the dose-dependent plot (FIGS. 2A-2F).

[13] = molecular target: T2, soluble CAR extracellular domain (ECD) …; assay: BLI (OctetRed384), biotinylated CAR ECD on streptavidin tips; the cell stands under the head 'kd (1/s)' (heads shifted)
Description: as §2

[14] = molecular target: T2, soluble CAR extracellular domain (ECD) …; assay: BLI (OctetRed384), biotinylated CAR ECD on streptavidin tips; the cell stands under the head 'KD (M)' (heads shifted)
Description: as §2

[15] = molecular target: T2, soluble CAR extracellular domain (ECD) …; assay: BLI (OctetRed384), GC5W48-Btn loaded on streptavidin tip; row 'average'; the sheet puts this number under 'kon (1/Ms)', Table 14 of the text under 'kd (1/s)'
Description: as §2

[16] = molecular target: T2, soluble CAR extracellular domain (ECD) …; assay: BLI (OctetRed384), GC5W48-Btn (biotinylated CAR ECD) loaded on streptavidin tip, mAb in solution; first of two table rows
Description: as §2

T2 sequence (P01732 138-182): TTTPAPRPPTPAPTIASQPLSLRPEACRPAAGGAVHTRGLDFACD
T1 sequence (P01732 22-235): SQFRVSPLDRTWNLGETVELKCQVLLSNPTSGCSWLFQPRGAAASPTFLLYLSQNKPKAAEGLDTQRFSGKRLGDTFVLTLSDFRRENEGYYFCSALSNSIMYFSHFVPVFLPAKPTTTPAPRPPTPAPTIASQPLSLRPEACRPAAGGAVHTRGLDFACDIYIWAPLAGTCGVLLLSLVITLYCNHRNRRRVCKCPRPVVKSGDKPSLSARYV
T3 sequence (P01732 138-182): as the sequence (P01732 138-182) above

Binding+ in EMRA (%) [1]: 67.6%
koff [2]: 0.00156 s⁻¹
koff [3]: 0.00135 s⁻¹
Kd [4]: 6.35 nM
kon [4]: 245000 M⁻¹ s⁻¹
Binding in CD8+ cells (%) [5]: 32.9%
Binding+ in EMRA (%) [6]: 7.67%
Kd [7]: 5.58 nM
Binding+ in EM (%) [8]: 72.8%
koff [9]: 0.00114 s⁻¹
Binding+ in EM (%) [10]: 65.1%
Binding in CD8+ cells (%) [11]: 71.6%
EC50 [12]: 2.9 nM
kon [13]: 241000 M⁻¹ s⁻¹
koff [14]: 0.00135 s⁻¹
kon [15]: 241000 M⁻¹ s⁻¹
Kd [16]: 4.81 nM
kon [16]: 237000 M⁻¹ s⁻¹
B1: CD8B612 (antibody, human IgG1, kappa)
heavy: not shown
light: DIVMTQTPLSLPVSLGDQASISCRSSQNIVHSNGNTYLEWYLQKPGQSPKLLIYRVSKRFSGVPDRFSGSGSGTDFTLKITRVEAEDLGVYYCFQGSHVPWTFGGGTKLEIKRTVAAPSVFIFPPSDEQLKSGTASVVCLLNNFYPREAKVQWKVDNALQSGNSQESVTEQDSKDSTYSLSSTLTLSKADYEKHKVYACEVTHQGLSSPVTKSFNRGEC
notes: Mouse variable regions on human IgG1 / human kappa constant regions

— patent publication US20230174651A1 (Janssen / Centocor, published 2023)
